# Measured values: paper PMC4634129
# Legend:
# [1] = target: RsPIPS-FL (chimeric construct: Af2299 extramembrane domain fused to the complete RsPIPS sequence abs (Archaeoglobus fulgidus | Renibacterium salmoninarum)); experiment: crystal structure; RsPIPS-FL with CDP-DAG, lipidic cubic phase (2% CDP-dioleoylglycerol/98% monoolein), 22 °C, 30% PEG 300, 0.1 M MES pH 6.0, 0.1 M NaCl, 0.1 M MgCl2; space group P 21, two dimers in the asymmetric unit; 3.6 Å
# [2] = target: RsPIPS-Δ6N (chimeric construct: Af2299 extramembrane domain fused to the N-terminus of PIP synthase (Archaeoglobus fulgidus | Renibacterium salmoninarum)); experiment: crystal structure; RsPIPS-Δ6N, apo, lipidic cubic phase (monoolein), 22 °C, 20% PEG 400, 0.1 M MES pH 6.7, 0.2 M lithium sulfate; space group P 21 21 2, one protomer in the asymmetric unit; 2.5 Å
substance,measurement,setting,value
RsPIPS-FL (chimeric construct: Af2299 extramembrane domain fused to the complete RsPIPS sequence abs (enzyme),stoichiometry N,[1],2
RsPIPS-Δ6N (chimeric construct: Af2299 extramembrane domain fused to the N-terminus of PIP synthase (enzyme),stoichiometry N,[2],2
